According to doi:10.1101/2021.09.02.458712:

Target: GFP-LL5β (-ADA) (UniProt Q86SQ0)
Assay: co-IP

UniProt Q86SQ0, sequence (Q86SQ0 whole entry): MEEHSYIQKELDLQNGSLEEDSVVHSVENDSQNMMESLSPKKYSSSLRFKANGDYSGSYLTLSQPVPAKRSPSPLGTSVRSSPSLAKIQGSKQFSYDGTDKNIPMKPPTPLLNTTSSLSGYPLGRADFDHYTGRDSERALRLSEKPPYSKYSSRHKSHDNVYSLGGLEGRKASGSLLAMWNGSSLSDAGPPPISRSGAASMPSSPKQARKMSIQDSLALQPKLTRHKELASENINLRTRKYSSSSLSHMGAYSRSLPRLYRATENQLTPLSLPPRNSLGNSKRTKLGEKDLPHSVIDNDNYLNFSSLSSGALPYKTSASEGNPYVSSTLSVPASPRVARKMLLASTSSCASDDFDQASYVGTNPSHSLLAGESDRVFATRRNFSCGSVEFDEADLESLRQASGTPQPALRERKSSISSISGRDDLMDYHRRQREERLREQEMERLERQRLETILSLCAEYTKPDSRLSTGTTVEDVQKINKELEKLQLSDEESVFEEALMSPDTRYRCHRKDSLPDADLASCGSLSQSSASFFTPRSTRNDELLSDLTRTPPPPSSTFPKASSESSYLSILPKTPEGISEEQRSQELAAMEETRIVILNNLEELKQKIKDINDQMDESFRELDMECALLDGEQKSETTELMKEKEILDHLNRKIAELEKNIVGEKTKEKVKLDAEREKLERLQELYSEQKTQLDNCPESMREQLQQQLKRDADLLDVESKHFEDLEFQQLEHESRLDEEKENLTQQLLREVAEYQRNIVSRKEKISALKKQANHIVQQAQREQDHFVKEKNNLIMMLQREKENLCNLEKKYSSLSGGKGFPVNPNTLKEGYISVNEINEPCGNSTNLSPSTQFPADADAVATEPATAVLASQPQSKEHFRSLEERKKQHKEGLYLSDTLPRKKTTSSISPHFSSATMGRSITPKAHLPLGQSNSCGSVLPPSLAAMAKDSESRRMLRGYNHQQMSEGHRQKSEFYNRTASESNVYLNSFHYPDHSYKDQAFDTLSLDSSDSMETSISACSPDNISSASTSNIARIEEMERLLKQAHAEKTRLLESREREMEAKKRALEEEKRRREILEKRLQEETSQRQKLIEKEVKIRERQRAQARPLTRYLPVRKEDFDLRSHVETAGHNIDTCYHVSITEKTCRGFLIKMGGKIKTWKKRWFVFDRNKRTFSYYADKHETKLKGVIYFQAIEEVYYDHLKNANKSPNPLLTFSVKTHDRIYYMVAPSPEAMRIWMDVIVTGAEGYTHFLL

fold decrease of association against GFP-LL5β: 2 fold
B1: endogenous CLASP2 (natural protein)
chain: MAMGDDKSFDDEESVDGNRPSSAASAFKVPAPKTSGNPANSARKPGSAGGPKVGGASKEGGAGAVDEDDFIKAFTDVPSIQIYSSRELEETLNKIREILSDDKHDWDQRANALKKIRSLLVAGAAQYDCFFQHLRLLDGALKLSAKDLRSQVVREACITVAHLSTVLGNKFDHGAEAIVPTLFNLVPNSAKVMATSGCAAIRFIIRHTHVPRLIPLITSNCTSKSVPVRRRSFEFLDLLLQEWQTHSLERHAAVLVETIKKGIHDADAEARVEARKTYMGLRNHFPGEAETLYNSLEPSYQKSLQTYLKSSGSVASLPQSDRSSSSSQESLNRPFSSKWSTANPSTVAGRVSAGSSKASSLPGSLQRSRSDIDVNAAAGAKAHHAAGQSVRSGRLGAGALNAGSYASLEDTSDKLDGTASEDGRVRAKLSAPLAGMGNAKADSRGRSRTKMVSQSQPGSRSGSPGRVLTTTALSTVSSGVQRVLVNSASAQKRSKIPRSQGCSREASPSRLSVARSSRIPRPSVSQGCSREASRESSRDTSPVRSFQPLASRHHSRSTGALYAPEVYGASGPGYGISQSSRLSSSVSAMRVLNTGSDVEEAVADALKKPARRRYESYGMHSDDDANSDASSACSERSYSSRNGSIPTYMRQTEDVAEVLNRCASSNWSERKEGLLGLQNLLKNQRTLSRVELKRLCEIFTRMFADPHGKRVFSMFLETLVDFIQVHKDDLQDWLFVLLTQLLKKMGADLLGSVQAKVQKALDVTRESFPNDLQFNILMRFTVDQTQTPSLKVKVAILKYIETLAKQMDPGDFINSSETRLAVSRVITWTTEPKSSDVRKAAQSVLISLFELNTPEFTMLLGALPKTFQDGATKLLHNHLRNTGNGTQSSMGSPLTRPTPRSPANWSSPLTSPTNTSQNTLSPSAFDYDTENMNSEDIYSSLRGVTEAIQNFSFRSQEDMNEPLKRDSKKDDGDSMCGGPGMSDPRAGGDATDSSQTALDNKASLLHSMPTHSSPRSRDYNPYNYSDSISPFNKSALKEAMFDDDADQFPDDLSLDHSDLVAELLKELSNHNERVEERKIALYELMKLTQEESFSVWDEHFKTILLLLLETLGDKEPTIRALALKVLREILRHQPARFKNYAELTVMKTLEAHKDPHKEVVRSAEEAASVLATSISPEQCIKVLCPIIQTADYPINLAAIKMQTKVIERVSKETLNLLLPEIMPGLIQGYDNSESSVRKACVFCLVAVHAVIGDELKPHLSQLTGSKMKLLNLYIKRAQTGSGGADPTTDVSGQS
